Measurements published in the supplement of paper PMC9112550, “Optimization of the antimicrobial peptide Bac7 by deep mutational scanning” (BMC Biology, 2022).

Test system: Escherichia coli TOP10
Assay: shrunken log2 fold change of peptide-encoding DNA abundance (4.5 h post-induction vs induction); higher = less antimicrobial activity (less host growth inhibition)
Conditions: time post-induction: 4.5 h; library: site-saturation at positions 5, 18, 19, 20
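Also: peptides expressed intracellularly from a pBAD plasmid library in pooled LB shake-flask culture, induced with 0.3% L-arabinose, DNA abundance read by NGS, three biological replicates, DESeq2 with apeglm shrinkage.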

Row | Sequence | shrunken log2 fold change
1 | RRIRKRPPRLPRPRPRPFPTPRP | 2.75
2 | RRIRVRPPRLPRPRPRPQCHPRP | -0.0451
3 | RRIRRRPPRLPRPRPRPSMYPRP | -0.345
4 | RRIRHRPPRLPRPRPRPVSPPRP | 0.183
5 | RRIRTRPPRLPRPRPRPRIWPRP | 0.104
6 | RRIRHRPPRLPRPRPRPVGRPRP | 0.226
7 | RRIRARPPRLPRPRPRPLPGPRP | 0.467
8 | RRIRMRPPRLPRPRPRPDVGPRP | 0.0278
9 | RRIRGRPPRLPRPRPRPYWRPRP | -0.104
10 | RRIRYRPPRLPRPRPRPCKVPRP | -0.422
11 | RRIRSRPPRLPRPRPRPWATPRP | -0.102
12 | RRIRARPPRLPRPRPRPRNLPRP | -0.0356
13 | RRIRRRPPRLPRPRPRPEFMPRP | 0.377
14 | RRIRWRPPRLPRPRPRPKNQPRP | 0.123
15 | RRIRSRPPRLPRPRPRPCQLPRP | -0.163
16 | RRIRLRPPRLPRPRPRPGTAPRP | 0.362
17 | RRIRNRPPRLPRPRPRPRMPPRP | -0.0444
18 | RRIRTRPPRLPRPRPRPPNCPRP | 0.0905
19 | RRIRVRPPRLPRPRPRPKRHPRP | 0.0244
20 | RRIRPRPPRLPRPRPRPPYFPRP | 0.0747
21 | RRIRMRPPRLPRPRPRPHVTPRP | -0.441
22 | RRIRPRPPRLPRPRPRPEEGPRP | -0.0155
23 | RRIRVRPPRLPRPRPRPVWLPRP | 0.276
24 | RRIRERPPRLPRPRPRPRHMPRP | -0.0855
25 | RRIRYRPPRLPRPRPRPMNLPRP | -0.0114

Row | Sequence | shrunken log2 fold change
26 | RRIRDRPPRLPRPRPRPTPPPRP | 0.49
27 | RRIRHRPPRLPRPRPRPSSIPRP | -0.762
28 | RRIRLRPPRLPRPRPRPKFRPRP | -0.0412
29 | RRIRYRPPRLPRPRPRPLCQPRP | -0.648
30 | RRIRVRPPRLPRPRPRPHLDPRP | 0.0818
31 | RRIRTRPPRLPRPRPRPHSCPRP | -0.0159
32 | RRIRIRPPRLPRPRPRPQMCPRP | 0.0648
33 | RRIRVRPPRLPRPRPRPCFSPRP | -0.356
34 | RRIRSRPPRLPRPRPRPMFQPRP | 0.0483
35 | RRIRGRPPRLPRPRPRPLEAPRP | 1.44
36 | RRIRRRPPRLPRPRPRPLDEPRP | 0.632
37 | RRIRWRPPRLPRPRPRPQCMPRP | -0.157
38 | RRIRMRPPRLPRPRPRPRFSPRP | 0.206
39 | RRIRHRPPRLPRPRPRPHYEPRP | 0.0367
40 | RRIRLRPPRLPRPRPRPELEPRP | 0.23
41 | RRIRFRPPRLPRPRPRPLMAPRP | -0.581
42 | RRIRWRPPRLPRPRPRPAGYPRP | 0.278
43 | RRIRFRPPRLPRPRPRPLWDPRP | -0.119
44 | RRIRFRPPRLPRPRPRPHYAPRP | -0.285
45 | RRIRERPPRLPRPRPRPIQWPRP | 0.0338
46 | RRIRPRPPRLPRPRPRPTADPRP | 0.407
47 | RRIRCRPPRLPRPRPRPNIIPRP | 0.796
48 | RRIRLRPPRLPRPRPRPGKNPRP | -0.304
49 | RRIRNRPPRLPRPRPRPMCYPRP | -0.0198
50 | RRIRARPPRLPRPRPRPVALPRP | 0.411

Row | Sequence | shrunken log2 fold change
51 | RRIRYRPPRLPRPRPRPNAMPRP | -0.166
52 | RRIRVRPPRLPRPRPRPYPNPRP | 0.0262
53 | RRIRTRPPRLPRPRPRPPRYPRP | 0.152
54 | RRIRLRPPRLPRPRPRPEKQPRP | 0.0884
55 | RRIRHRPPRLPRPRPRPDFEPRP | 0.18
56 | RRIRCRPPRLPRPRPRPFKYPRP | -0.246
57 | RRIRHRPPRLPRPRPRPFNMPRP | -0.0933
58 | RRIRQRPPRLPRPRPRPGQYPRP | -0.156
59 | RRIRIRPPRLPRPRPRPHSPPRP | -0.161
60 | RRIRMRPPRLPRPRPRPGCVPRP | 0.967
61 | RRIRERPPRLPRPRPRPLLRPRP | -0.152
62 | RRIRARPPRLPRPRPRPTWFPRP | 0.225
63 | RRIRNRPPRLPRPRPRPMSTPRP | -0.0292
64 | RRIRVRPPRLPRPRPRPYGKPRP | -0.289
65 | RRIRERPPRLPRPRPRPQRYPRP | -0.222
66 | RRIRTRPPRLPRPRPRPHIEPRP | -0.0284
67 | RRIRQRPPRLPRPRPRPRWCPRP | -0.0737
68 | RRIRKRPPRLPRPRPRPKVDPRP | 0.00437
69 | RRIRKRPPRLPRPRPRPYETPRP | 0.00149
70 | RRIRGRPPRLPRPRPRPVWWPRP | 0.997
71 | RRIRTRPPRLPRPRPRPKNIPRP | -0.627
72 | RRIRIRPPRLPRPRPRPFMAPRP | -0.397
73 | RRIRTRPPRLPRPRPRPYVHPRP | -0.75
74 | RRIRWRPPRLPRPRPRPTRHPRP | 0.37
75 | RRIRGRPPRLPRPRPRPCFSPRP | 0.0442

Row | Sequence | shrunken log2 fold change
76 | RRIRQRPPRLPRPRPRPPNIPRP | -0.3
77 | RRIRTRPPRLPRPRPRPGHPPRP | 0.09
78 | RRIRHRPPRLPRPRPRPGSIPRP | -0.209
79 | RRIRNRPPRLPRPRPRPPLRPRP | 0.138
80 | RRIRYRPPRLPRPRPRPIAKPRP | 0.0673
81 | RRIRCRPPRLPRPRPRPGHFPRP | -0.217
82 | RRIRNRPPRLPRPRPRPSQKPRP | -0.0723
83 | RRIRNRPPRLPRPRPRPPIQPRP | 0.0569
84 | RRIRTRPPRLPRPRPRPLKAPRP | 0.0363
85 | RRIRCRPPRLPRPRPRPANMPRP | -0.277
86 | RRIRLRPPRLPRPRPRPKGAPRP | 0.379
87 | RRIRSRPPRLPRPRPRPYWSPRP | -0.414
88 | RRIRVRPPRLPRPRPRPNEQPRP | -0.232
89 | RRIRMRPPRLPRPRPRPEPKPRP | 2.51
90 | RRIRVRPPRLPRPRPRPPCLPRP | -0.108
91 | RRIRQRPPRLPRPRPRPDNFPRP | 0.013
92 | RRIRYRPPRLPRPRPRPAFFPRP | -0.405
93 | RRIRDRPPRLPRPRPRPPSRPRP | -0.0515
94 | RRIRSRPPRLPRPRPRPHQYPRP | -0.549
95 | RRIRIRPPRLPRPRPRPTEEPRP | 0.146
96 | RRIRLRPPRLPRPRPRPFAYPRP | -0.163
97 | RRIRARPPRLPRPRPRPYDAPRP | 0.0611
98 | RRIRLRPPRLPRPRPRPHFKPRP | -0.367
99 | RRIRKRPPRLPRPRPRPFQLPRP | 0.0661
100 | RRIRDRPPRLPRPRPRPGCYPRP | 0.0592

Row | Sequence | shrunken log2 fold change
101 | RRIRWRPPRLPRPRPRPYREPRP | -0.773
102 | RRIRGRPPRLPRPRPRPIPLPRP | 0.16
103 | RRIRRRPPRLPRPRPRPKYIPRP | -0.135
104 | RRIRGRPPRLPRPRPRPWDHPRP | 0.0661
105 | RRIRMRPPRLPRPRPRPTQAPRP | 0.0839
106 | RRIRNRPPRLPRPRPRPYFVPRP | -0.312
107 | RRIRIRPPRLPRPRPRPNNVPRP | -0.7
108 | RRIRLRPPRLPRPRPRPMHNPRP | -0.429
109 | RRIRTRPPRLPRPRPRPEVGPRP | 0.0668
110 | RRIRYRPPRLPRPRPRPYVTPRP | -0.115
111 | RRIRTRPPRLPRPRPRPLSTPRP | -0.386
112 | RRIRGRPPRLPRPRPRPLGMPRP | 0.575
113 | RRIRTRPPRLPRPRPRPTGSPRP | 0.0948
114 | RRIRGRPPRLPRPRPRPGAEPRP | 1.68
115 | RRIRIRPPRLPRPRPRPDQFPRP | -0.321
116 | RRIRQRPPRLPRPRPRPGPAPRP | 0.114
117 | RRIRYRPPRLPRPRPRPSSTPRP | -0.158
118 | RRIRWRPPRLPRPRPRPMFPPRP | 0.0483
119 | RRIRYRPPRLPRPRPRPFVWPRP | 0.119
120 | RRIRERPPRLPRPRPRPLRQPRP | 0.0463
121 | RRIRPRPPRLPRPRPRPWKWPRP | 0.423
122 | RRIRERPPRLPRPRPRPFIPPRP | -0.481
123 | RRIRHRPPRLPRPRPRPSNIPRP | -0.332
124 | RRIRCRPPRLPRPRPRPEIWPRP | 0.471
125 | RRIRKRPPRLPRPRPRPSSPPRP | -0.563
